{"source": "paper PMC4219657", "about": "“Structural and Mechanistic Basis of Zinc Regulation Across the E. coli Zur Regulon” (PLoS Biology, 2014)", "binders": {"B1": {"name": "PzinT 51 bp (dsDNA)", "DNA 1": "CCCATTTTGCTATATGTTACAATATAACATTACACATCATATACATTAAGG", "DNA 2": "CCTTAATGTATATGATGTGTAATGTTATATTGTAACATATAGCAAAATGGG"}, "B2": {"name": "PL31p 51 bp (dsDNA)", "DNA 1": "CCATCATTTTTACCTGTTATGTTATAACATAACCATAAAGATACATGCTGG", "DNA 2": "CCAGCATGTATCTTTATGGTTATGTTATAACATAACAGGTAAAAATGATGG"}, "B3": {"name": "PznuABC 51 bp (dsDNA)", "DNA 1": "CCGAATATGAGAAGTGTGATATTATAACATTTCATGACTACTGCAAGACGG", "DNA 2": "CCGTCTTGCAGTAGTCATGAAATGTTATAATATCACACTTCTCATATTCGG"}, "B4": {"name": "E. coli zinc uptake regulator (Zur), wild type (natural protein)", "chain": "MEKTTTQELLAQAEKICAQRNVRLTPQRLEVLRLMSLQDGAISAYDLLDLLREAEPQAKPPTVYRALDFLLEQGFVHKVESTNSYVLCHLFDQPTHTSAMFICDRCGAVKEECAEGVEDIMHTLAAKMGFALRHNVIEAHGLCAACVEVEACRHPEQCQHDHSVQVKKKPR", "notes": "Zinc uptake regulator Zur of Escherichia coli; the crystal model includes residues 5-152 of each of four chains (A-D); Zinc-loaded (two Zn2+ sites per monomer); no tag is named; also called EcZur; WTZur; source: E. coli BL21 (DE3), pET24d-based plasmid, purified (heparin column)"}, "B5": {"name": "E. coli Zur site B mutant C88S (natural protein)", "chain": "B4 chain with C88S", "notes": "Zinc uptake regulator Zur of Escherichia coli with C88S (zinc site B); also called B-site (C88S) mutant; source: E. coli BL21 (DE3), pET24d-based plasmid, purified (heparin column)"}, "B6": {"name": "31mer2bpOH (dsDNA)", "DNA 1": "AGAAGTGTGATATTATAACATTTCATGACTATG", "DNA 2": "TAGTCATGAAATGTTATAATATCACACTTCTCA"}, "B7": {"name": "Br-31mer2bpOH (dsDNA)", "DNA 1": "B6 DNA 1 with T8U, T22U", "DNA 2": "B6 DNA 2", "modifications": "5-bromo-dU at positions 8 and 22 of strand 1 (dU-Br)"}, "B8": {"name": "PpliG 51 bp (dsDNA)", "DNA 1": "CCATGAGTACGATGAACTGTTATAATATAACAATCCCTAACGGGAGAAGG", "DNA 2": "CCTTCTCCCGTTAGGGATTGTTATATTATAACAGTTCATCGTACTCATGG"}}, "key": {"Zur WT [1]": {"molecular_target": "T1, Zur WT (Escherichia coli, UniProt P0AC51 1-171)", "T1 sequence": "B4 chain", "test": "EMSA; 50 uM ZnSO4; macroscopic Kd-app for two dimers; table footnote a not in material; EMSA: 10 mM Tris pH 8.0, 10 mM NaCl, 100 mM K-glutamate, 167 mM KCl, 1.5 mM MgCl2, 1 mM CaCl2, 50 uM ZnSO4, 1 mM DTT, 0.1 ug/ml BSA, 2 ug/ml salmon sperm DNA, DNA <=45 pM, 22 C, 30 min", "conditions": "protein: recombinant; chain copies: 4; label: 5'-Cy5 on strand 1; blunt"}, "Zur D49A": {"molecular_target": "T2, Zur D49A (Escherichia coli, UniProt P0AC51 1-171, D49A)", "T2 sequence": "B4 chain with D49A", "test": "EMSA; 50 uM ZnSO4; Kd1, first dimer; EMSA: 10 mM Tris pH 8.0, 10 mM NaCl, 100 mM K-glutamate, 167 mM KCl, 1.5 mM MgCl2, 1 mM CaCl2, 50 uM ZnSO4, 1 mM DTT, 0.1 ug/ml BSA, 2 ug/ml salmon sperm DNA, DNA <=45 pM, 22 C, 30 min", "conditions": "protein: recombinant; chain copies: 2; label: 5'-Cy5 on strand 1; blunt"}, "Zur R52A": {"molecular_target": "T3, Zur R52A (Escherichia coli, UniProt P0AC51 1-171, R52A)", "T3 sequence": "B4 chain with R52A", "test": "EMSA; 50 uM ZnSO4; Kd1, first dimer; EMSA: 10 mM Tris pH 8.0, 10 mM NaCl, 100 mM K-glutamate, 167 mM KCl, 1.5 mM MgCl2, 1 mM CaCl2, 50 uM ZnSO4, 1 mM DTT, 0.1 ug/ml BSA, 2 ug/ml salmon sperm DNA, DNA <=45 pM, 22 C, 30 min", "conditions": "protein: recombinant; chain copies: 2; label: 5'-Cy5 on strand 1; blunt"}, "Zur WT [2]": {"molecular_target": "T1, Zur WT", "test": "EMSA; 50 uM ZnSO4; macroscopic Kd-app for two dimers, Hill ~2.1; EMSA: 10 mM Tris pH 8.0, 10 mM NaCl, 100 mM K-glutamate, 167 mM KCl, 1.5 mM MgCl2, 1 mM CaCl2, 50 uM ZnSO4, 1 mM DTT, 0.1 ug/ml BSA, 2 ug/ml salmon sperm DNA, DNA <=45 pM, 22 C, 30 min", "conditions": "protein: recombinant; chain copies: 4; label: 5'-Cy5 on strand 1; blunt"}, "[3]": {"molecular_target": "the molecule itself", "test": "crystal structure; Zn-loaded Zur with the 31 bp znuABC operator duplex (31mer2bpOH); hanging drop, 1.5 M ammonium sulfate, 0.1 M citrate pH 5.5, 4°C; refined to 2.50 Å"}, "[4]": {"molecular_target": "the molecule itself", "test": "SEC; analytical gel filtration of WT Zur, C103S and C88S; elution volume of WT (10.9 ml) as reference; column and buffer not told"}, "Zur WT [5]": {"molecular_target": "T1, Zur WT", "test": "X-ray crystallography; Zn2+ (2 per monomer), 2.50 A; EMSA: 10 mM Tris pH 8.0, 10 mM NaCl, 100 mM K-glutamate, 167 mM KCl, 1.5 mM MgCl2, 1 mM CaCl2, 50 uM ZnSO4, 1 mM DTT, 0.1 ug/ml BSA, 2 ug/ml salmon sperm DNA, DNA <=45 pM, 22 C, 30 min", "conditions": "protein: recombinant; chain copies: 4; 3' overhang 2 nt on both strands"}, "Zur WT [6]": {"molecular_target": "T1, Zur WT", "test": "X-ray crystallography; Zn2+; Br-DNA, 3.5 A; EMSA: 10 mM Tris pH 8.0, 10 mM NaCl, 100 mM K-glutamate, 167 mM KCl, 1.5 mM MgCl2, 1 mM CaCl2, 50 uM ZnSO4, 1 mM DTT, 0.1 ug/ml BSA, 2 ug/ml salmon sperm DNA, DNA <=45 pM, 22 C, 30 min", "conditions": "protein: recombinant; chain copies: 4; 3' overhang 2 nt on both strands"}, "Zur WT [7]": {"molecular_target": "T1, Zur WT", "test": "EMSA; 50 uM ZnSO4; Kd1, first dimer; EMSA: 10 mM Tris pH 8.0, 10 mM NaCl, 100 mM K-glutamate, 167 mM KCl, 1.5 mM MgCl2, 1 mM CaCl2, 50 uM ZnSO4, 1 mM DTT, 0.1 ug/ml BSA, 2 ug/ml salmon sperm DNA, DNA <=45 pM, 22 C, 30 min", "conditions": "protein: recombinant; chain copies: 4; label: 5'-Cy5 on strand 1; blunt"}, "Zur WT [8]": {"molecular_target": "T1, Zur WT", "test": "EMSA; 50 uM ZnSO4; macroscopic Kd-app for two dimers; EMSA: 10 mM Tris pH 8.0, 10 mM NaCl, 100 mM K-glutamate, 167 mM KCl, 1.5 mM MgCl2, 1 mM CaCl2, 50 uM ZnSO4, 1 mM DTT, 0.1 ug/ml BSA, 2 ug/ml salmon sperm DNA, DNA <=45 pM, 22 C, 30 min", "conditions": "protein: recombinant; chain copies: 4; label: 5'-Cy5 on strand 1; blunt"}}, "note": "Substitutions are numbered along the chain they refer to. Numbers in names are those of the source.", "data": [{"binder": "B1", "values": [{"measurement": "Kd", "setting": "Zur WT [1]", "value": "5.3e-20", "unit": "M^2"}]}, {"binder": "B2", "values": [{"measurement": "Kd", "setting": "Zur WT [1]", "value": "2.5e-20", "unit": "M^2"}]}, {"binder": "B3", "values": [{"measurement": "Kd", "setting": "Zur D49A", "value": 2.1, "unit": "nM"}, {"measurement": "Kd", "setting": "Zur R52A", "value": 2.6, "unit": "nM"}, {"measurement": "Kd", "setting": "Zur WT [2]", "value": "8.2e-18", "unit": "M^2"}]}, {"binder": "B4", "values": [{"measurement": "stoichiometry N", "setting": "[3]", "value": 4}]}, {"binder": "B5", "values": [{"measurement": "stoichiometry N", "setting": "[4]", "value": 2}]}, {"binder": "B6", "values": [{"measurement": "binding result", "setting": "Zur WT [5]", "value": "binds"}]}, {"binder": "B7", "values": [{"measurement": "binding result", "setting": "Zur WT [6]", "value": "binds"}]}, {"binder": "B8", "values": [{"measurement": "Kd", "setting": "Zur WT [7]", "value": 28, "unit": "nM"}, {"measurement": "Kd", "setting": "Zur WT [8]", "value": "5.2e-16", "unit": "M^2"}]}]}
